Test results: patent US20240352105A1, “COMPOSITIONS AND METHODS FOR NEUTRALIZING ANTIGENS” (PACAGEN, INC, priority 2023, published 2024)
Several values for one entry are separate records, joined by “and”; a condition that tells them apart may be missing. Identical values can stand only once. No end group written: not given here.

B1: SDAB22110-2-F1 (peptide)
peptide: AVVSFYP
modifications: also: biotinylated, site not given here
notes: 7-amino acid peptide from a phage display library
B2: SDAB22110-2-C3 (peptide)
peptide: YPTWAYR
modifications: also: biotinylated, site not given here
notes: as for B1
B3: SDAB22110-2-G1 (peptide)
peptide: VVAFGIS
modifications: also: biotinylated, site not given here
notes: as for B1
B4: SDAB22110-2-D9 (peptide)
peptide: LTGYGMS
modifications: also: biotinylated, site not given here
notes: as for B1
B5: SDAB22110-2-D3 (peptide)
peptide: HSGPECG
modifications: also: biotinylated, site not given here
notes: as for B1
B6: SDAB22110-2-B2 (peptide)
peptide: GIHMALM
modifications: also: biotinylated, site not given here
notes: as for B1
B7: 370VH + 378VL: known Fel D1 positive control antibody, heavy chain SEQ ID NO: 64, light chain SEQ ID NO: 65 (antibody, V domains shown)
VH: EVQLVESGGGLAQPGGSLRLSCAASGFTFNNYAMTWVRQAPGKGLDWVSAISDSGRSTFSADSVKGRFTISRDNSKNTLYLQMDSLRAEDTALYYCAKHRNWNYPVFDYWGQGTLVTVSS
VL: DIQLTQSPSFLSASVGDRVTITCWASQGISSYLAWYQQKPGKAPKLLIYSASTLQSGVPSRFSGSGSGTEFTLTISSLQPEDFATYYCQQLNSYPFTFGPGTKVDIK
B8: 18VH + 378VL: known Fel D1 positive control antibody, heavy chain SEQ ID NO: 66, light chain SEQ ID NO: 65 (antibody, V domains shown)
VH: EVQLVESGGGLVKPGGSLRLSCAASGFTFRNYNINWVRQAPGKGLEWVSLISGSSSYIYYADSVKGRFTVSRDNAKNSLYLQMNSLRAEDTAVYYCARRTLSYYVMDVWGQGTTVTVSS
VL: B7 VL
B9: Der p1-His: recombinant His-tagged dust mite allergen Der p1 (protein)
chain: TNACSINGNAPAEIDLRQMRTVTPIRMQGGCGSCWAFSGVAATESAYLAYRNQSLDLAEQELVDCASQHGCHGDTIPRGIEYIQHNGVVQESYYRYVAREQSCRRPNAQRFGISNYCQIYPPNVNKIREALAQTHSAIAVIIGIKDLDAFRHYDGRTIIQRDNGYQPNYHAVNIVGYSNAQGVDYWIVRNSWDTNWGDNGYGYFAANIDLMMIEEYPYVVIL
modifications: left off: small tags and cut ends

Biological target: T1, recombinant His-tagged Der p1 (dust mite, UniProt P08176 99-320, limits assumed)
T1 construct: Recombinant His-tagged protein made by the applicant; also called Der p1-His; Der pl; not shown: His tag
T1 sequence (looked up): B9 chain
Experiment: ELISA, Der p1 on plate, biotinylated peptide at 0.370, duplicate 1
Conditions: not given
Procedure: (§1) An ELISA was used to validate identified peptides. Der p1 was bound to the bottom of a plate. Different concentrations of the chosen (biotinylated) peptides were added and then washed. Then, HRP-streptavidin (which binds to the biotin) was added and an OD at 450 nm is measured. Duplicate measurements are separated by commas.

Molecule	OD450 [OD450]
B1	0.076
B2	0.072
B3	0.088
B4	0.068
B5	1.37
B6	0.083

Biological target: T2, recombinant Fel d1-His (Felis catus, UniProt P30438+P30440)
T2 construct: His; made in house
T2 sequence (P30438 23-92): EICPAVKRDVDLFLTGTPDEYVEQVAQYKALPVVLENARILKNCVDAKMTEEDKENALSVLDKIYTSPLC
T2 sequence (P30440 18-109): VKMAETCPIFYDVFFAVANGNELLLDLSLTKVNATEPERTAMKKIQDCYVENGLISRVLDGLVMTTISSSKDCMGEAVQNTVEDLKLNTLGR
Experiment: Recombinant Fel D1 His binding assay with positive control antibodies
Set-up: species or system cat
Conditions: Volume of Fel D1-His 10 μL (concentration ~1 μg/μL)
Procedure: In order to obtain single variable domain on heavy chain, i.e., VHH, specific for cat allergen Fel D1, a recombinant His-tagged Fel D1 was prepared, which reached high purity, as shown via SDS-Page Western blotting in FIG. 14. To confirm this, an ELISA was performed measuring optical density when the recombinant Fel d1-His is incubated with two known Fel D1 antibodies which are summarized in Table 18. As summarized in Table 19, the recombinant Fel d1-His was effectively bound by both antibodies.

Molecule	OD450 Using Positive Control
B7	4.47 and 4.44
B8	4.47 and 4.44

Same assay, conditions: Volume of Fel D1-His 50 μL (concentration ~1 μg/μL)

Molecule	OD450 Using Positive Control
B7	4.55 and 4.53
B8	4.55 and 4.53

Same assay, conditions: Volume of Fel D1-His 100 μL (concentration ~1 μg/μL)

Molecule	OD450 Using Positive Control
B7	4.60
B8	4.60

Biological target: T1, recombinant His-tagged Der p1
Experiment: ELISA, Der p1 on plate, biotinylated peptide at 30, duplicate 1
Conditions: not given
Procedure: as §1

Molecule	OD450 [OD450]
B1	0.938
B2	0.684
B3	0.666
B4	0.751
B5	4.1
B6	0.536

Biological target: T1, recombinant His-tagged Der p1
Experiment: ELISA, Der p1 on plate, biotinylated peptide at 3.333, duplicate 2
Conditions: not given
Procedure: as §1

Molecule	OD450 [OD450]
B1	0.209
B2	0.191
B3	0.145
B4	0.154
B5	2.88
B6	0.136

Biological target: T1, recombinant His-tagged Der p1
Experiment: ELISA, Der p1 on plate, biotinylated peptide at 0.123, duplicate 2
Conditions: not given
Procedure: as §1

Molecule	OD450 [OD450]
B1	0.075
B2	0.065
B3	0.073
B4	0.068
B5	0.906
B6	0.066

Biological target: T1, recombinant His-tagged Der p1
Experiment: ELISA, Der p1 on plate, biotinylated peptide at 3.333, duplicate 1
Conditions: not given
Procedure: as §1

Molecule	OD450 [OD450]
B1	0.221
B2	0.162
B3	0.147
B4	0.154
B5	2.77
B6	0.132

Biological target: T1, recombinant His-tagged Der p1
Experiment: ELISA, Der p1 on plate, biotinylated peptide at 1.111, duplicate 1
Conditions: not given
Procedure: as §1

Molecule	OD450 [OD450]
B1	0.131
B2	0.104
B3	0.102
B4	0.095
B5	2.16
B6	0.089

Biological target: T1, recombinant His-tagged Der p1
Experiment: ELISA, Der p1 on plate, biotinylated peptide at 0.041, duplicate 2
Conditions: not given
Procedure: as §1

Molecule	OD450 [OD450]
B1	0.066
B2	0.057
B3	0.062
B4	0.059
B5	0.463
B6	0.061

Tested on: known Der p1 antibody (clone 10B9)
Experiment: Recombinant Der p1-His ELISA binding assay
Conditions: Der p1-His Concentration 0.00064 μg/mL
Procedure: In order to obtain single variable domain on heavy chain, i.e., VHH, specific for dust mite allergen Der p1, a recombinant His-tagged Der p1 was prepared, which reached high purity, as shown via SDS-Page Western blotting in FIG. 8. To confirm this, an ELISA was performed measuring optical density when the recombinant Der p1-His is incubated with a known Der p1 antibody (clone 10B9). As summarized in Table 11, the recombinant Der p1-His was effectively bound by the antibody.

Molecule	OD at 450 nm
B9	0.13 and 0.12

Same assay, conditions: Der p1-His Concentration 0.016 μg/mL

Molecule	OD at 450 nm
B9	0.20 and 0.17

Same assay, conditions: Der p1-His Concentration 0.08 μg/mL

Molecule	OD at 450 nm
B9	0.58 and 0.49

Same assay, conditions: Der p1-His Concentration 0.4 μg/mL

Molecule	OD at 450 nm
B9	1.80 and 1.87

Same assay, conditions: Der p1-His Concentration 2 μg/mL

Molecule	OD at 450 nm
B9	4.03 and 4.31

Same assay, conditions: Der p1-His Concentration 10 μg/mL

Molecule	OD at 450 nm
B9	4.37 and 4.40

Biological target: T1, recombinant His-tagged Der p1
Experiment: ELISA, Der p1 on plate, biotinylated peptide at 0.123, duplicate 1
Conditions: not given
Procedure: as §1

Molecule	OD450 [OD450]
B1	0.073
B2	0.065
B3	0.082
B4	0.067
B5	0.866
B6	0.078

Biological target: T1, recombinant His-tagged Der p1
Experiment: ELISA, Der p1 on plate, biotinylated peptide at 30, duplicate 2
Conditions: not given
Procedure: as §1

Molecule	OD450 [OD450]
B1	0.805
B2	0.748
B3	0.629
B4	0.771
B5	4.13
B6	0.537

Biological target: T1, recombinant His-tagged Der p1
Experiment: ELISA, Der p1 on plate, biotinylated peptide at 1.111, duplicate 2
Conditions: not given
Procedure: as §1

Molecule	OD450 [OD450]
B1	0.125
B2	0.102
B3	0.109
B4	0.102
B5	2.25
B6	0.089

Biological target: T1, recombinant His-tagged Der p1
Experiment: ELISA, Der p1 on plate, biotinylated peptide at 10, duplicate 2
Conditions: not given
Procedure: as §1

Molecule	OD450 [OD450]
B1	0.516
B2	0.376
B3	0.293
B4	0.357
B5	3.57
B6	0.289

Biological target: T1, recombinant His-tagged Der p1
Experiment: ELISA, Der p1 on plate, biotinylated peptide at 0.041, duplicate 1
Conditions: not given
Procedure: as §1

Molecule	OD450 [OD450]
B1	0.079
B2	0.058
B3	0.057
B4	0.061
B5	0.468
B6	0.07

Biological target: T1, recombinant His-tagged Der p1
Experiment: ELISA, Der p1 on plate, biotinylated peptide at 10, duplicate 1
Conditions: not given
Procedure: as §1

Molecule	OD450 [OD450]
B1	0.479
B2	0.346
B3	0.323
B4	0.374
B5	3.55
B6	0.275

Biological target: T1, recombinant His-tagged Der p1
Experiment: ELISA, Der p1 on plate, biotinylated peptide at 0.370, duplicate 2
Conditions: not given
Procedure: as §1

Molecule	OD450 [OD450]
B1	0.073
B2	0.066
B3	0.082
B4	0.078
B5	1.36
B6	0.071
